B1: TMEM175 (parent)
chain: QTSAFARQPRDELERVRVSCTIIF
B2: RAD51 (parent)
chain: APKKELINIKGISEAKADKILAEA

Variants of: B1
Assay: protein stability index of a GFP-peptide fusion (GPS, HEK-293T) (PSI 1-6); higher = more stable
Details: c terminus: a fixed tail appended
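Also: lentivirally expressed fusions sorted by FACS into six bins by GFP to DsRed ratio, PSI derived from sequencing read proportions per bin multiplied by bin number.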

Variant | protein stability index
F24C | 2.66
F24E | 3.76
F24T | 1.64
F24K | 3.15
F24P | 2.78
F24Q | 2.56
F24R | 2.37
F24S | 2.46
F24D | 3.47
F24G | 2.12
F24L | 2.47
F24Y | 2.08
F24A | 2.02
F24N | 2.48
F24H | 2.01
F24W | 1.21
F24M | 2.35
C20E | 2.22
C20R | 3.05
C20A | 2.33
C20H | 1.57
C20F | 2.07
C20K | 1.95
C20D | 2.53

Variant | protein stability index
C20I | 2.61
C20W | 2.42
C20T | 1.51
C20G | 1.56
C20P | 1.78
C20S | 1.94
C20Q | 2.42
C20V | 1.83
C20N | 2.57
C20Y | 1.83
I23S | 2.69
I23C | 1.67
I23Q | 1.79
I23R | 2.21
I23A | 2.06
I23F | 3.33
I23V | 3.26
I23N | 2.37
I23E | 1.57
I23K | 2.07
I23P | 3.13
I23L | 1.82
I23D | 2.81
I23G | 2.83

Variant | protein stability index
I23H | 2.56
I23Y | 2.6
I23M | 2.91
I22L | 2.49
I22M | 1.88
I22D | 3.54
I22F | 1.65
I22R | 2.42
I22C | 2.08
I22W | 2.02
I22A | 1.99
I22G | 2.94
I22K | 3.06
I22P | 3.2
I22H | 2.72
I22E | 2.91
I22Q | 2.62
I22Y | 1.69
I22V | 2.17
I22N | 3.05
I22T | 2.71
I22S | 2.28
S19T | 3.22
S19R | 1.84

Variant | protein stability index
S19W | 1.39
S19Y | 1.65
S19V | 1.99
S19Q | 2.37
T21D | 2.72
T21Q | 1.58
T21R | 1.52
T21A | 2
T21I | 2.63
T21N | 2.7
T21C | 2.27
T21E | 1.76
T21G | 2.91
T21M | 2.77
T21L | 2.64
T21F | 2.01
T21S | 2.3
T21K | 1.66
T21Y | 1.34
T21H | 2.12
T21P | 2.06

Variants of: B2
Assay: as above
Details: c terminus: a fixed tail appended

Variant | protein stability index
L6Q | 4.79
L6A | 5.16
L6I | 4.4
L6E | 5.28
L6R | 4.61
L6Y | 4.46
L6V | 5.2
L21P | 5.21
L21Q | 5.18
L21M | 4.98
L21D | 5.58
L21T | 5.25
L21N | 5.02
L21E | 4.54
L21G | 4.73
L21S | 5.46
L21C | 5.15
L21V | 4.79
L21R | 4.96
D18Q | 4.27
D18M | 3.31
D18A | 4.26
D18V | 4.07
D18R | 4.07
D18C | 3.36

Variant | protein stability index
D18P | 5.17
D18Y | 2.63
D18E | 3.83
D18G | 4.16
D18T | 4.04
A17S | 5
A17N | 4.94
A17V | 4.53
A17R | 4.62
A17E | 5.22
A17G | 4.84
A17P | 4.82
A17Y | 4.08
A17F | 3.73
N8R | 4.79
N8Y | 4.39
N8M | 4.17
N8H | 4.69
N8T | 4.01
N8F | 3.76
N8I | 3.43
N8D | 4.88
N8W | 3.75
G11Y | 4.18
G11T | 4.59

Variant | protein stability index
G11Q | 4.72
G11R | 4.37
G11K | 4.68
G11D | 4.9
G11E | 4.74
G11C | 4.17
G11H | 4.8
G11S | 5.46
G11I | 3.39
G11L | 3.69
G11P | 4.93
G11F | 3.69
G11M | 3.98
G11N | 4.62
G11W | 3.4
K16T | 5.22
K16N | 5.08
K16L | 3.28
K16D | 5
K16S | 4.61
K16Q | 4.65
K16W | 1.64
K16G | 5.01
K16A | 4.47
I9T | 5.24

Variant | protein stability index
I9F | 4.51
I9Y | 4.91
I9W | 4.65
I9S | 4.89
I9C | 5.4
I9P | 5.4
I9K | 5.22
I9R | 5.12
I9L | 4.62
E14T | 4.43
E14N | 4.84
E14C | 3.66
E14K | 4.4
E14V | 4.81
E14Q | 4.76
E14R | 4.05
E14H | 4.58
E14I | 3.68
K3W | 3.81
K3Y | 3.85
K3T | 4.97
K3R | 4.58
K3S | 4.55
K3A | 4.92
K3Q | 4.81

Variant | protein stability index
K3D | 4.71
K3G | 4.65
K3L | 3.3
K3F | 3.48
I20D | 5.47
I20W | 4.26
I20N | 5.38
I20Q | 5.69
I20V | 4.97
I20T | 5.16
I20S | 4.95
I20L | 4.86
I20P | 5.5
I20F | 4.02
K4R | 4.39
K4W | 3.98
K4N | 4.95
K4C | 4.68
K4I | 4.25
K4P | 5.05
K4E | 5.22
K4Q | 4.6
K4H | 4.17
K4M | 4.13
A22G | 4.62

Variant | protein stability index
A22T | 3.9
A22N | 4.59
A22L | 4.19
A22V | 4.79
A22C | 4.25
A22P | 4.83
A22E | 5.28
A22H | 4.52
A22S | 4.61
A22Y | 3.8
A22D | 5.38
A22M | 4.75
A15C | 4.63
A15D | 4.64
A15I | 4.77
A15Y | 3.58
A15L | 4.27
A15N | 4.36
A15P | 4.41
A15W | 3.88
A15R | 4.4
K10H | 4.59
K10W | 3.99
K10R | 4.2
K10Q | 4.46

Variant | protein stability index
K10D | 5.12
K10N | 4.42
K10F | 3.82
I12Q | 5.33
I12T | 5.16
I12G | 4.69
I12E | 4.54
I12M | 4.98
I12S | 5.27
I12L | 4.64
I12K | 5.36
E5V | 3.65
E5Y | 3.1
E5F | 3.04
E5M | 3.7
E5C | 3.56
E5P | 4.54
E23M | 3.72
E23K | 4.46
E23A | 4.18
E23C | 3.38
E23D | 4.96
E23G | 4.1
E23T | 4.13
E23H | 3.85

Variant | protein stability index
E23R | 3.85
I7S | 5.52
I7C | 4.21
I7N | 4.7
I7M | 4.99
I7E | 5.17
I7V | 5.39
I7Y | 4.73
I7G | 4.8
I7Q | 4.83
I7K | 4.78
I7H | 5.01
I7P | 5.04
I7F | 3.8
I7W | 4.49
I7L | 5.31
I7D | 5.31
A1R | 4.63
A1E | 5.23
A1S | 4.52
A1D | 4.31
A1Y | 3.83
A1C | 4.73
A1H | 4.37
A1Q | 4.55

Variant | protein stability index
P2K | 4.34
P2F | 3.62
P2R | 4.02
P2Y | 4.18
P2Q | 4.88
P2S | 4.36
P2T | 4.6
P2A | 4.93
P2L | 3.97
P2M | 4.53
A24R | 4.83
A24F | 3.53
A24L | 4.4
A24K | 5.26
A24M | 4.34
A24W | 3.97
A24C | 4.51
A24I | 3.61
A24N | 4.96
A24E | 3.9
A24Y | 3.76
A24T | 5.36
A24V | 4.26
S13E | 5.23
S13T | 5.02

Variant | protein stability index
S13H | 5.38
S13L | 4.21
S13R | 4.36
S13D | 5.12
S13I | 3.86
S13Q | 4.83
S13W | 4.12
K19E | 5.12
K19P | 4.48
K19F | 3.7
K19H | 4.3
K19Y | 4.61
K19A | 3.63
K19S | 4.89
K19D | 4.98
K19V | 4.49
